Earlier results as cited in patent publication US20120082669A1, “HUMAN EPO MIMETIC HINGE CORE MIMETIBODIES, COMPOSITIONS, METHODS AND USES FOR PREVENTING OR TREATING GLUCOSE INTOLERANCE RELATED CONDITIONS OR RENAL DISEASE ASSOCIATED ANEMIA” (priority 2006, published 2012).

Key:
EPO receptor [1] = biological target: T1, EPO receptor (Homo sapiens, UniProt P19235); settings: relative to HuEPO; cited from earlier work
T1 sequence (P19235 25-508): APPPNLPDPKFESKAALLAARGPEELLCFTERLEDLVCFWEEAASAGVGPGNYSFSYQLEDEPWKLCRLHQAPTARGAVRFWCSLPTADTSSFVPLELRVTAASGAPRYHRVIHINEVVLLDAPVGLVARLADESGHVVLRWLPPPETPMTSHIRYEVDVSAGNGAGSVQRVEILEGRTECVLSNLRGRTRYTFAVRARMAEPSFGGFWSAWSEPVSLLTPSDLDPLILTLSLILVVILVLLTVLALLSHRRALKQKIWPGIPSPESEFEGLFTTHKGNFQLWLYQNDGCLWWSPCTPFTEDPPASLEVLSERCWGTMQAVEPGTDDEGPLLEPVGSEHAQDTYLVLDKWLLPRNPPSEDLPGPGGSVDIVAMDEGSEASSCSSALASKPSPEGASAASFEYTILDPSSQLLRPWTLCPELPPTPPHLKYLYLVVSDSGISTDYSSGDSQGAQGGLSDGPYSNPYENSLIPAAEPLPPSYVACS

EPO receptor [2] = biological target: T1, EPO receptor; settings: cited from earlier work
[3] = serum; cited from earlier work
[4] = test system: patients with end-stage renal disease; settings: patients with end-stage renal disease treated with EPO; cited from earlier work
[5] = cited from earlier work

Substance	activity, fold less than HuEPO (EPO receptor [1])	competition with 125I-labeled EPO for binding to the EPO receptor (EPO receptor [2])	ex-vivo half-life [3] [h]	blood triglyceride, total cholesterol and LDL levels [4]	insulin resistance [4]	time to peak serum levels ([5]; after subcutaneous administration) [h]	circulating half-life ([5]; intravenously administered, patients with CRF) [h]	time detectable levels of plasma erythropoietin are maintained ([5]; within the therapeutic dose range)
GGTYSCHFGPLTWVCKPQGG [EMP-1]	10,000 to 100,000 fold	competes	8					
Erythropoietin: glycoprotein hormone of 165 amino acids and four carbohydrate chains, primary regulator of erythropoiesis				concomitant improvement	improve insulin resistance	5 to 24	3 to 4	at least 24 hours
